± gives the uncertainty stated by the source.
Assay: self-splicing fitness, log relative to wild type (ln ratio); higher = more splicing; Tetrahymena group I intron in knt gene, E. coli kanamycin selection, DiMSum; sequences stand for … in CUCUCU…GGAGGGAAAAGUUAUCAGGCAUGCACCUGGUAGCUAGUCUUUAAACCAAUAGAUUGCAUCGGUUUAAAAGGCAAGACCGUCAAAUUGCGGGAAAGGGGUCAACAGCCGUUCAGUACCAAGUCUCAGGGGAAACUUUGAGAUGGCCUUGCAAAGGGUAUGGUAAUAAGCUGACGGACAUGGUCCUAACCACGCAGCCAAGUCCUAAGUCAACAGAUCUUCUGUUGAUAUGGAUGCAGUUCACAGACUAAAUGUCGGUCGGGGAAGAUGUAUUCUUCUCAUAAGAUAUAGUCGGACCUCUCCUUAAUGGGAGCUAGCGGAUGAAGUGAUGCAACACUGGAGCCGCUGGGAACUAAUUUGUAUGCGAAAGUAUAUUGAUUAGUUUUGGAGUACUCGUGGUCG
Method in brief: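 DiMSum derived fitness as the error-weighted combination of fold changes across replicates, kanamycin versus no kanamycin, normalised to wild type. E. coli BL21(DE3) held the library, which randomised all eight P1ex-region intron nucleotides within the knt kanamycin-resistance gene on pET-22b(+). Six replicate transformations grew overnight at 37°C or 30°C on LB agar with or without 25 μg/mL kanamycin, also containing 100 μg/mL carbenicillin, 50 μM IPTG and 0.2% rhamnose, and pooled colonies were amplicon-sequenced on an Illumina HiSeq 2500.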

Sequence | self-splicing fitness (ln) (30 °C) | self-splicing fitness (ln) (37 °C)
AAUGAGCAAUAUUACGAGUG | -3.11 ± 0.27 | -2.23 ± 0.23
GGUUAGCAAUAUUACGUUCA | 0.228 ± 0.14 | -0.557 ± 0.13
UAAUAGCAAUAUUACGACUG | -0.137 ± 0.062 | 0.0819 ± 0.078
CGACAGCAAUAUUACGGUGA | -2.34 ± 0.14 | -1.55 ± 0.14
AGUAAGCAAUAUUACGGUUU | -1.45 ± 0.092 | -0.554 ± 0.11
CAUUAGCAAUAUUACGUUAC | -3.48 ± 0.2 | -2.17 ± 0.25
GUGGAGCAAUAUUACGAGGC | – | -1.03 ± 0.5
GCUGAGCAAUAUUACGCGAA | – | -2.91 ± 0.37
UUGUAGCAAUAUUACGCGAG | -1.17 ± 0.11 | -0.735 ± 0.099
UCACAGCAAUAUUACGUCGC | -2.99 ± 0.19 | -2.13 ± 0.19
ACGUAGCAAUAUUACGUCGA | -3.67 ± 0.3 | -2.72 ± 0.24
UCUAAGCAAUAUUACGUCAC | -2.47 ± 0.24 | 0.446 ± 0.28
AUGUAGCAAUAUUACGGGCC | -2.93 ± 0.35 | -1.86 ± 0.32
GUCCAGCAAUAUUACGUGUC | -0.424 ± 0.057 | 0.0485 ± 0.068
GUUAAGCAAUAUUACGUCGA | -1.79 ± 0.11 | -1.02 ± 0.11
GAAGAGCAAUAUUACGCGCA | -1.11 ± 0.2 | -1.35 ± 0.14
AUGUAGCAAUAUUACGAUCU | -0.222 ± 0.056 | 0.524 ± 0.073
GCCUAGCAAUAUUACGGCCC | -3.4 ± 0.48 | -0.535 ± 0.27
GAUAAGCAAUAUUACGUGGA | -3.96 ± 0.38 | -2.55 ± 0.17
CUAAAGCAAUAUUACGCUCC | -3.15 ± 0.29 | -2.29 ± 0.35
UGGGAGCAAUAUUACGUGUG | -1.75 ± 0.22 | -2.26 ± 0.33
GUCAAGCAAUAUUACGUGAC | -5.1 ± 0.39 | -4.13 ± 0.32
CAUGAGCAAUAUUACGGGCC | – | -1.98 ± 0.36
CGAGAGCAAUAUUACGUAAG | -2.59 ± 0.13 | -1.26 ± 0.15
UUCGAGCAAUAUUACGCGGC | – | -2.29 ± 0.49

Sequence | self-splicing fitness (ln) (30 °C) | self-splicing fitness (ln) (37 °C)
AGGAAGCAAUAUUACGAGGA | -2.39 ± 0.29 | -2.32 ± 0.22
GCGCAGCAAUAUUACGUUUC | -1.35 ± 0.057 | -0.727 ± 0.074
UACGAGCAAUAUUACGCCUA | -1.81 ± 0.15 | -0.823 ± 0.16
ACACAGCAAUAUUACGUUUC | -3.61 ± 0.12 | -2.28 ± 0.14
UUUAAGCAAUAUUACGCAGU | -2.7 ± 0.22 | -2.36 ± 0.27
GCAAAGCAAUAUUACGACCC | -1.11 ± 0.073 | -0.0707 ± 0.1
ACAUAGCAAUAUUACGCUUG | -1.76 ± 0.11 | -1.28 ± 0.14
UGAAAGCAAUAUUACGUUUA | -0.985 ± 0.066 | -0.471 ± 0.074
AGCAAGCAAUAUUACGAAAC | -4.25 ± 0.25 | -1.03 ± 0.13
GCGUAGCAAUAUUACGUAGA | -3.35 ± 0.19 | -2.88 ± 0.29
CAUAAGCAAUAUUACGGGAC | -1.54 ± 0.18 | -2.23 ± 0.27
ACGAAGCAAUAUUACGGACA | -0.643 ± 0.14 | -0.915 ± 0.15
CUUCAGCAAUAUUACGCGUA | -2.92 ± 0.18 | -2.46 ± 0.17
AAUCAGCAAUAUUACGGGUC | -2.03 ± 0.086 | -1.76 ± 0.11
AUAGAGCAAUAUUACGCGUA | -0.662 ± 0.1 | -0.524 ± 0.13
GGCCAGCAAUAUUACGUGCU | -3.59 ± 0.15 | -2.52 ± 0.2
UUGAAGCAAUAUUACGGGCC | – | -2.14 ± 0.42
UACAAGCAAUAUUACGUUCA | -0.621 ± 0.052 | -0.478 ± 0.069
UAUGAGCAAUAUUACGUUAC | -3.37 ± 0.36 | -2.48 ± 0.23
ACCAAGCAAUAUUACGUGAG | -1.19 ± 0.07 | -0.649 ± 0.086
CAGAAGCAAUAUUACGAUCU | -1.88 ± 0.12 | -0.995 ± 0.1
GGCUAGCAAUAUUACGCUUU | -0.428 ± 0.083 | 0.202 ± 0.099
CUCUAGCAAUAUUACGAGCA | -3.95 ± 0.33 | -3.04 ± 0.23
UCCGAGCAAUAUUACGCAGC | -4.03 ± 0.35 | -2.51 ± 0.39
GAUAAGCAAUAUUACGCGCC | -1.76 ± 0.17 | -1.31 ± 0.26

Sequence | self-splicing fitness (ln) (30 °C) | self-splicing fitness (ln) (37 °C)
GCGAAGCAAUAUUACGUACC | -1.02 ± 0.17 | 0.269 ± 0.19
GCGAAGCAAUAUUACGUUAA | -1.65 ± 0.18 | -1.88 ± 0.23
ACUCAGCAAUAUUACGAGAU | -2.56 ± 0.11 | -1.81 ± 0.11
CGGGAGCAAUAUUACGUCGG | -2.52 ± 0.14 | -1.66 ± 0.15
GGUAAGCAAUAUUACGAACG | -0.0623 ± 0.11 | -0.0489 ± 0.12
CAGUAGCAAUAUUACGAUAG | 0.00229 ± 0.079 | 0.167 ± 0.097
UCAUAGCAAUAUUACGACUU | -3.87 ± 0.28 | -2.42 ± 0.39
CUAUAGCAAUAUUACGUACG | 0.0512 ± 0.15 | -0.136 ± 0.14
UUUAAGCAAUAUUACGGUCA | -1.15 ± 0.12 | -0.266 ± 0.1
AUAAAGCAAUAUUACGCACU | 0.366 ± 0.11 | 0.662 ± 0.11
CCUGAGCAAUAUUACGAGAU | -1.86 ± 0.16 | -2.09 ± 0.23
GUUUAGCAAUAUUACGGUCC | -0.925 ± 0.11 | -0.109 ± 0.12
GUGUAGCAAUAUUACGCUGA | -1.22 ± 0.18 | -1.58 ± 0.17
AUUAAGCAAUAUUACGGCUA | -0.106 ± 0.11 | -0.122 ± 0.11
CGCGAGCAAUAUUACGGGCC | -2.71 ± 0.27 | –
AGAAAGCAAUAUUACGAGAC | -2.65 ± 0.3 | -2.13 ± 0.47
CAGGAGCAAUAUUACGAAUA | -3.47 ± 0.29 | -1.49 ± 0.24
AUCUAGCAAUAUUACGGAGA | -2.16 ± 0.2 | -1.32 ± 0.16
CUAUAGCAAUAUUACGAAUC | -2.05 ± 0.36 | -1.9 ± 0.33
GCUUAGCAAUAUUACGGACU | -0.304 ± 0.085 | 0.4 ± 0.093
CAGGAGCAAUAUUACGACGG | -1.44 ± 0.054 | -0.588 ± 0.053
AUAUAGCAAUAUUACGUAUG | -3.36 ± 0.25 | -1.72 ± 0.3
GCCGAGCAAUAUUACGCCGU | -3.28 ± 0.29 | -1.75 ± 0.19
GACCAGCAAUAUUACGACGG | -2.67 ± 0.15 | -1.99 ± 0.18
UUGUAGCAAUAUUACGGAGG | -3.76 ± 0.42 | -1.87 ± 0.35

Sequence | self-splicing fitness (ln) (30 °C) | self-splicing fitness (ln) (37 °C)
UCAAAGCAAUAUUACGGAGC | – | -3.53 ± 0.33
AGCCAGCAAUAUUACGUCAU | -2.29 ± 0.12 | -0.981 ± 0.15
CCAAAGCAAUAUUACGCUCA | -3.2 ± 0.14 | -2.2 ± 0.16
CCACAGCAAUAUUACGGUUG | -1.72 ± 0.047 | -0.701 ± 0.058
CCAUAGCAAUAUUACGGUGA | -1.18 ± 0.11 | -1.74 ± 0.12
CUAUAGCAAUAUUACGAACU | -3.67 ± 0.43 | –
CGGUAGCAAUAUUACGAUGG | -0.774 ± 0.1 | 0.646 ± 0.14
ACGAAGCAAUAUUACGCGGC | -2.63 ± 0.35 | -2.22 ± 0.24
CUGAAGCAAUAUUACGGGGG | -1.46 ± 0.14 | -1.28 ± 0.18
AUGUAGCAAUAUUACGUGCG | -1.8 ± 0.09 | -0.122 ± 0.097
GCGAAGCAAUAUUACGCGGA | – | -1.26 ± 0.36
GGCUAGCAAUAUUACGAGGA | -1.17 ± 0.17 | -1.47 ± 0.14
UCAGAGCAAUAUUACGCUGA | -3.04 ± 0.34 | -2.1 ± 0.37
GGACAGCAAUAUUACGGGCA | -0.731 ± 0.18 | -0.477 ± 0.17
CUCUAGCAAUAUUACGCCCU | -3.28 ± 0.26 | -2.2 ± 0.19
UUACAGCAAUAUUACGGGUA | -1.94 ± 0.097 | -0.854 ± 0.087
UUCAAGCAAUAUUACGGGCA | -0.666 ± 0.11 | 0.111 ± 0.1
AACCAGCAAUAUUACGUUUG | -2.83 ± 0.077 | -2.31 ± 0.1
GCACAGCAAUAUUACGCCAC | – | -1.97 ± 0.2
CGCUAGCAAUAUUACGGUCC | -1.48 ± 0.12 | -0.153 ± 0.15
UACAAGCAAUAUUACGGAGU | -4.15 ± 0.29 | -1.71 ± 0.16
AAGAAGCAAUAUUACGUUAG | -3.65 ± 0.31 | -2.77 ± 0.22
UCAAAGCAAUAUUACGAAGU | -2.96 ± 0.16 | -2.39 ± 0.24

Source: the supplement of paper PMC7877785
